Entries after “also recorded” stand apart in the source; their conditions may differ.
Columns and labels:
core region tau = assay: S1D12 immunotherapy 6-week repeat-dose mouse study, plasma tau by CA4-S1G2 core-core Simoa assay; format: in vivo
Method: A total of 12 wildtype, 12 Line 1 and 12 Line 66 female mice were used in this study—Line 1 and Line 66 are transgenic mouse models of tauopathy (Melis et al., 2015). Animals were 2 months old at the beginning of the study. Mice of each genotype were injected intraperitoneally (i.p.) with either vehicle or S1D12 mAb (30 mg/kg), once per week, for six consecutive weeks.
Seven days post final dose, cardiac puncture blood sampling was performed. mice were anaesthetised using an overdose of sodium pentobarbital (i.p.) and blood was collected via cardiac puncture through a Plastipak syringe pre-rinsed with heparinised saline (10 U/mL) and transferred into a plastic vial containing lithium heparin anticoagulant. Blood samples were centrifuged to obtain plasma at 2,000×g for 5 min at 6° C.
In order to monitor the ‘treatment effect’ of S1D12 mAb, plasma tau of vehicle control and antibody treated L66^+/+ mice were assessed via a core-core homebrew Simoa® assay to investigate changes in core tau pools in these mice.

tau = assay: Western blot of mouse brain homogenates (WT, L66+/+, L1+/+); details: 20 μg brain homogenate protein, 5-month-old WT, L1+/+ mice
Method: Protein equivalent to 20 μg from each brain extract was separated using 4-20% bis-tris gels and run in 1×MES buffer. […] A clear band is visible in the lanes containing L66^+/+ samples, but no other bands are detectable (WT or L1^+/+). […] Once again, a band having relative mobility of 65 kDa is visible in the L66 sample with no other reactive bands present.
This band most likely corresponds to endogenous mouse tau which is of a similar size. In the L66^+/+ samples, a second band running at approximately 68 kDa is also detected. The presence of numerous other bands indicates proteolytic truncation of tau within brain homogenates.

dGA = dGA (Homo sapiens, UniProt P10636); assay: Biacore X100 SPR binding kinetics of anti-tau scAbs (scAb captured via HuCk), analyte dGA; details: lead scAbs; for ka: Table 24; for dissociation rate constant (kd): Table 24, dissociation rate
Chain of dGA (P10636 614-707): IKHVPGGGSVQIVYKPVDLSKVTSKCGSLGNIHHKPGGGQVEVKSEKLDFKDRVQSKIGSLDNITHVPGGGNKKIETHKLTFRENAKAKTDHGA
Method: (§1) Surface plasmon resonance (SPR) is widely regarded as the gold standard for real time measurement of protein-protein interactions such as antibody binding. All SPR experiments were carried out using a Biacore X100 machine and HBS EP+ running buffer (GE Healthcare). A ‘capture’ method was followed for affinity measurements, where an anti-human constant kappa chain (HuCk) antibody was conjugated to the surface of a CM5 sensor chip using an amine coupling kit and scAb molecules were immobilised via their HuCk domain. Amine coupling is a very common approach for immobilising the ligand to the chip surface. The chip surface has a dextran matrix derivatised with carboxyl groups, which after activation with N-hydroxysuccinimide (NHS) and 1-ethyl-3-(3-dimethylaminopropyl) carbodiimide (EDC), form reactive succinimide esters which allows the covalent capturing of the ligand via any available primary amine groups (e.g. Lysine) on the ligand (in this case anti-HuCk antibody). The capture antibody was diluted 1/100 in 10 mM Sodium acetate buffer pH 5.0 and passed over the activated chip surface for a period of at least 420 s. Final ligand immobilisation levels over 12,000 RU were deemed to be satisfactory.
(§2) Following immobilisation, the level of each scAb to be captured was identified using the standard SPR equation with a theoretical RMax of 100 RU. Analyte MW refers to the molecular weight of hT40 or dGA/dGAE molecules, while ligand MW refers to the molecular weight of the scAbs tested. RLis the desired capture level and S refers to the stoichiometric ratio:
(§3) The scAb to be tested was added only to flow cell 2 so that flow cell 1 could act as a control to subtract any interaction with the analyte and the chip surface. Both single and multi-cycle runs were utilised using wizards developed in the Biacore X100 control software which are both accepted methods of kinetic analysis (Karlsson, R., et al. Analyzing a kinetic titration series using affinity biosensors (2006) Analytical Biochemistry 349:136-47). The multi-cycle protocol was as follows-Three start-up cycles composed of an initial capture, to the desired level, of the scAb to be tested was performed followed by a 30 s injection of glycine buffer pH 2.0 after each cycle to regenerate the chip surface. The regeneration step removed any captured scAb whilst leaving the capture antibody intact and able to repeat the capture for the next cycle. Following three start-up cycles increasing concentrations (0.15625 nM-100 nM) of the target to be tested were added to the chip surface after the desired scAb capture. The target was added for a 120 s association period and 420 s dissociation period followed by another regeneration, 30 s injection of glycine buffer pH 2.0 in between each cycle.
The single cycle kinetics protocol was similar and utilised the same level of scAb capture. Three start-up cycles were used followed by 5 increasing concentrations of the analyte (6.25 nM-100 nM) for an association period of 120 s followed by a dissociation period of 420 s for each concentration. In single cycle kinetics the regeneration step was performed only after the final analyte concentration was added. Binding responses were analysed in Biacore X100 evaluation software and data fitted to a 1:1 binding model to obtain kinetic and affinity characterisation.

tau protein = assay: Capture ELISA of transgenic mouse brain lysates; details: S1D12 mAb capture; label = detection scAb; WT, L1, L66+/- and L66+/+
Method: Mouse brain lysates were prepared from wildtype, Line 1, Line 66+/+ and Line 66+/− (Melis et al., 2015, all surplus from Charles River, part of study R0144). All animals were female, 7-8 months old except Line 66+/+ which were 5 months old. […] The L1 cDNA construct (FIG. 23) contains human tau cDNA coding for amino acid residues 296-390 with a signal sequence and related sequences in a murine Thy-1 expression cassette. For brain lysate preparation, half brains were sectioned into four and the individual sections were homogenised in 400 μl of ice cold RIPA buffer (Cell signalling Technology) containing protease and phosphatase inhibitors. Total protein concentrations for individual samples were established by BCA-assay and each sample was subsequently diluted to 1 mg/ml for future experiments.
For capture ELISA, 100 μL S1D12 capture mAb was used to coat a nunc 96 well Maxisorp plate at 1 μg/ml and incubated for 1 hour at 37° C. Plate was washed as previously and then blocked for 1 hour at 37° C. in 2% MPBS. Brain homogenate samples (50 ng total protein) from each mouse type were added to the first wells and double diluted across the plate in PBS. These samples were left to incubate at RT for 1 hour. Various detection scAbs encompassing epitopes of interest were then added to the plate at 1 μg/ml and incubated for 1 h at RT. Secondary antibody used was anti-HuCk HRP and the assays were developed as described previously. Using S1D12 mAb capture and two separate scAb detectors, S-1G2 (FIG. 24A) and C-B7 (FIG. 24B), it was possible to differentiate between L1 and L66 samples and the wild type.

dGAE aggregates = target: T1, dGAE aggregates (Homo sapiens, UniProt P10636); assay: Sandwich ELISA LoD for SDS Triton X-100 treated dGAE aggregates; format: binding; details: label = detection scAb
T1 construct: host or cells: aggregated in house: 100 μM dGAE with DTT, 700 rpm, 37 °C, 24 h
T1 sequence (P10636 614-708): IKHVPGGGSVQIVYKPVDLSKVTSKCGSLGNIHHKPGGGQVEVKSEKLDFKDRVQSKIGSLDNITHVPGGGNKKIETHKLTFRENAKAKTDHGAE
Method: For aggregation, 1000 μL 100 μM dGAE+10 μL 10 mM DTT was added to a ‘LoBind’ microfuge tubes and agitated at 700 RPM/37° C. for 24 hours. Resulting sample centrifuged at 17,000×g/4° C. for 60 min and supernatant discarded to remove left over monomer. Pellet resuspended in half the original volume for future experiments and hereafter referred to as ‘aggregates’. 1 μl of aggregates was added to 1 ml of PBS and SDS was added to a final concentration of 1% (w/v). This was left to incubate on lab bench for 1 h with gentle agitation every 15 minutes. In order to neutralise the SDS effect on ELISA, Triton X-100 added to a final concentration of 3% (v/v) and mixed gently by pipetting to prevent any bubble formation. 200 μl added of this mix was to the first well of an ELISA plate coated with 1 μg/ml S1D12 mAb and blocked with 2% MPBS. Similarly aggregates treated with only SDS or Triton X-100, untreated aggregates, dGAE monomers treated with only SDS or SDS+Titon X-100 were also added to designated wells as controls. All samples were then double diluted across the plate in final volumes of 100 μl. The final column was left with no protein to act as a blank. This was allowed to stand at room temperature for 1 hour followed by the addition of detection scAb-S1G2 at 10 μg/ml. Anti-HuCk HRP labelled secondary antibody was added as described previously and ELISA data generated was represented using the graph below. In addition, limits of detection (LoD) of various core binding antibody pairing for SDS Triton X-100 treated dGAE aggregates were calculated using the above describe ELISA method and substituting capture mAbs and detection scAbs as shown in Table 30.

dGAE = dGAE (Homo sapiens, UniProt P10636); assay: Biacore X100 SPR binding kinetics of anti-tau scAbs (scAb captured via HuCk), analyte dGAE; details: lead scAbs
Chain of dGAE (P10636 614-708): as above
Method: as §1, §2
as §3, with “Following three start-up cycles increasing concentrations (0.15625 nM-100 nM) of the target to be tested were added to the chip surface after the desired scAb capture. The target was added for a 120 s association period and 420 s dissociation period followed by another regeneration, 30 s injection of glycine buffer pH 2.0 in between each cycle.” left out
The single cycle kinetics protocol was similar and utilised the same level of scAb capture. […] Binding responses were analysed in Biacore X100 evaluation software and data fitted to a 1:1 binding model to obtain kinetic and affinity characterisation.

Molecule | plasma tau, L66+/+ mice with S1D12 treatment (core region tau; 30 mg/kg i.p. once per week for six weeks, CA4-S1G2 Simoa) | increase of core region tau in plasma vs vehicle group, L1 (core region tau; CA4-S1G2 pairing, n=5 or 6) | increase of core region tau in plasma vs vehicle group, L66 (core region tau; CA4-S1G2 pairing, n=5 or 6) | increase of core region tau in plasma vs vehicle group, wild-type (core region tau; CA4-S1G2 pairing, n=5 or 6) | Western blot reactivity (tau) | ka (dGA) | dissociation rate constant (kd) (dGA) | detection of tau in mouse brain homogenate (tau protein) | LoD, 423 mAb capture, +SDS Triton dGAE agg. (dGAE aggregates) | LoD, S1D12 mAb capture, +SDS Triton dGAE agg. (dGAE aggregates) | LoD, direct immobilisation of dGAE aggregates, +SDS Triton dGAE agg. (dGAE aggregates) | ka (dGAE; Table 24) | dissociation rate constant (koff) (dGAE; Table 24, dissociation rate)
S1D12: anti-tau binding molecule defined by its CDRs; scAb sequence SEQ ID NO: 32 (protein, S1D12 amino acid sequence) scFv: QVQLQESGPSLVKPSQTLSLTCTVSGFSLNNNAVGWVRQAPGKVPESLVGCSSDGTCYYNSALKSRLDITRDTSKNQISLSLSSVTTDDAAVYYCTRGHYSIYGYDYLGTIDYWGPGLLVTVSSEGKSSGASGESKVDDQAVLTQPSSVSGSLGQRVSITCSGSSSNVGGGNSVGWYQHLPGSGLKTIIYDTNSRPSGVPDRFSGSRSGNTATLTINSLQAEDEGDYYCVTGDSTTHDDLVGSGTRLTVLG | 3.52 (0.20) ng/ml | more than 100 fold | more than a threefold increase | less than a two-fold increase | A band is detected in each sample (WT, L66^+/+ and L1^+/+) | 1.21e+06 M⁻¹ s⁻¹ | 0.000418 s⁻¹ | – | – | – | – | – | –
S1G2: anti-tau binding molecule defined by its CDRs; scAb sequence SEQ ID NO: 81 (protein, S1G2 amino acid sequence) scFv: QVQLQESGPSLVKPSQTLSLTCTVSGFSLTSNSVGWVRQAPGKAPEWVAGIDTDGEEGYNPALNSRLSITRDTSKSQVSLSLSSVTSEDTAVYYCGRSYRADGLAYGYVQAIDYWGPGLLVTVSSEGKSSGASGESKVDDQAVVTQPSSVSGSLGQRVSITCSGSFIGISSVGWFQQLPGSGLRTIIVASDGRPSGVPDRFSMSKSGNTATLTISSLQAEDEADYFCGSSDRTPYTGVFGSGTRLTVLG | – | – | – | – | A band is detected in each sample (WT, L66^+/+ and L1^+/+); also recorded: able to detect the pathologic 10-kDa tau fragment | 783000 M⁻¹ s⁻¹ | 0.0003499 s⁻¹ | tau protein was detected in 50 μg of total brain protein in all four different sample types | 30 ng/mL | approximately 2 ng/ml | 16 ng/mL | – | –
E1E8: anti-tau clone, SEQ ID NO: 250 (protein, E1E8 amino acid sequence) scFv: QVQLQESGPSLVKPSQTLSLTCTVSGFSLTDWGVAWVRQAPGKALEWLGTMRSGGTTDDNPALKSRLSITRDTSKSQVSLSLSSVTTEDMAMYYCARGYLSGVHYAWGRGLLVTVSSEGKSSGASGESKVDDQAVLTQPSSVSGSLGQSVSITCSGSSSNVGDGRYVSWFQQVPGSAPKLLIYDTTSRASGVPDRFSGSRSGNTATLIITSLQAEDEADYYCASIDSGNNLLFGSGTRLTVLG | – | – | – | – | – | – | – | – | – | – | – | 153500 M⁻¹ s⁻¹ | 0.0014 s⁻¹
